Measurements published in patent US20250034266A1 (ZAI LAB SHANGHAI, published 2025).

Tests used:
human CCR8 [1] = target: T1, human CCR8 (human, UniProt P51685 1-355); test: FACS, competition with AF647-human CCL1 on HEK293-human CCR8 cells
T1 construct: whole, on cells; also called hCCR8
Method: (§1) Antibodies were prepared with 3-fold serial dilution ranging from 200 nM to 0.01 nM in FACS buffer. Then, cells were washed by FACS buffer for three times after incubation. […] FlowJo software was used for analysis. Data was plotted as the logarithm of antibody concentration versus mean fluorescence signals. IC₅₀ values were determined in GraphPad Prism 8 (GraphPad Software) using a log(agonist) vs. response-Variable slope (4 parameters) curve fit.

human CCR8 [2] = target: T1, human CCR8; test: FACS, competition with AF647-human CCL1 on CHO-K1-human CCR8 cells
Method: as §1

human CCR8 [3] = target: T1, human CCR8; test: FACS on CHO-K1-human CCR8 cells
human CCR8 [4] = target: T1, human CCR8; test: FACS, competition with CCL1 on CHO-K1-human CCR8 cells
cynomolgus CCR8 = target: T2, cynomolgus CCR8 (cynomolgus, UniProt G7NYJ2 1-355); test: FACS on HEK293-cynomolgus CCR8 cells
T2 construct: whole, on cells
T2 sequence (G7NYJ2 entry or part of it): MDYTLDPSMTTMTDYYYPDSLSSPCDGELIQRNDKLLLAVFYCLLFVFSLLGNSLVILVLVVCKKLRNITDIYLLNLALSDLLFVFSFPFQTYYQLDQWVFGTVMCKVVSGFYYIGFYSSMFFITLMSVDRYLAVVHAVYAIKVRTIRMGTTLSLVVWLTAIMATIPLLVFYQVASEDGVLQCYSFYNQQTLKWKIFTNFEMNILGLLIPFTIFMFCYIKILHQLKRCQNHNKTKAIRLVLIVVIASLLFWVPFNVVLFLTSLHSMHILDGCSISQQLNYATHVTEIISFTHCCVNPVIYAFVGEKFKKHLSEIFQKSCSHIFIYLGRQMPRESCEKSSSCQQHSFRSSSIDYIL

human CCR8 [5] = target: T1, human CCR8; test: FACS on HuT78 cells (endogenous human CCR8)
Method: HuT78 cells expressing endogenous human CCR8 were used for determining binding affinities of selected affinity matured anti-CCR8 antibodies. Briefly, a total of […] cells for each well were seeded in 96-well plates and washed with FACS buffer (DPBS containing […]) for once. […] Cells were incubated with 50 μL of diluted antibodies at 4° C. for 1 hour. After primary antibody incubation, cells were washed for 3 times by FACS buffer. Then, cells were stained by Alexa Fbu647 labeled anti-human IgG secondary antibody (Jackson ImmunoResearch, #109606170) at 1:600 dilution in FACS buffer for 0.5 hour at 4° C. After 3 times washed, flow cytometry (Sartourius, iQue3) was performed to measure the binding affinities of antibodies. […]

T1 sequence (P51685 whole entry): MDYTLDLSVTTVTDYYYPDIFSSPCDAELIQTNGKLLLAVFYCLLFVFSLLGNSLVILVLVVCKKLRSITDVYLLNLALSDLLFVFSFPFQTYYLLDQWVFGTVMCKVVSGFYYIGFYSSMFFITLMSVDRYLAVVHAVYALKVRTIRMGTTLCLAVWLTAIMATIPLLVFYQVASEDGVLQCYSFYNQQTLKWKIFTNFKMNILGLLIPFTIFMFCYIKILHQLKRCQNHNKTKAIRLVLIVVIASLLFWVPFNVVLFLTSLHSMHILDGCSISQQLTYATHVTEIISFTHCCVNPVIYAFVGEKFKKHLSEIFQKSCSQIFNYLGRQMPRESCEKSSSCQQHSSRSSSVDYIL

B1: 348E2D11 (antibody, V domains shown)
VH: QVQLVETGGGLVRPGNSLKLSCVTSGFSFSNYRMHWLRQPPGKRLEWIAVITVKSDNYGANYAESVKGRFTISRDDSKSSVYLQMNRLREEDTATYYCSSLGRVAYWGQGTLVTVSA
VL: DIVMTQSQKFMFTSVGDRVSVTCKASQNVDTNVVWYQQKPGQSPKALIYSASSRYSGVPDRFTGSGSGTDFTLTISNVQSEDLAEYFCQQHNSFPLTFGAGTKLELI
notes: purified murine hybridoma antibody
- IC50 (human CCR8 [1]): 0.368 nM
- Max Inhibition (%) (human CCR8 [1]): 100%
- IC50 (human CCR8 [2]): 0.231 nM
- Max Inhibition (%) (human CCR8 [2]): 95%

B2: Hu149-13 (antibody, human IgG1, V domains shown)
VH: EVQLVESGGGLVQPGGSLKLSCAASGFTFNTYAMNWVRQASGKGLEWVGRIRSKSNFYATAYAASVKGRFTISRDDSKNTAYLQMNSLKTEDTAVYYCTRGREYGRSYAMDYWGQGTLVTVSS
VL: DIVMTQSPLSLPVTPGEPASISCRSSKSLLHSNANTYLYWFLQKPGQSPQLLIYRMSNLASGVPDRFSGSGSGTDFTLKISRVEAEDVGVYYCMQHLEYPLTFGGGTKVELK
notes: human IgG1
- EC50 (human CCR8 [3]): 0.1 nM
- Max MFI (human CCR8 [3]): 653000 MFI
- IC50 (human CCR8 [4]): 0.0841 nM
- Max Inhibition (%) (human CCR8 [4]): 102%
- EC50 (cynomolgus CCR8): 0.193 nM
- Max MFI (cynomolgus CCR8): 4.37e+06 MFI
- Max MFI (human CCR8 [5]): 39100 MFI

B3: Hu149-20 (antibody, human IgG1, V domains shown)
VH: EVQLVESGGGLVQPGGSLKLSCAASGFTFNTYAMNWVRQASGKGLEWVGRIRSKSNFYATAYAASVKGRFTISRDDSKNTAYLQMNSLKTEDTAVYYCTRGKEYGSSYAMDYWGQGTLVTVSS
VL: DIVMTQSPLSLPVTPGEPASISCRSSKSLLHSNANTYLYWFLQKPGQSPQLLIYRMSNLASGVPDRFSGSGSGTDFTLKISRVEAEDVGVYYCMQHLKYPLTFGGGTKVELK
notes: human IgG1
- EC50 (human CCR8 [3]): 0.129 nM
- Max MFI (human CCR8 [3]): 751000 MFI
- IC50 (human CCR8 [4]): 0.147 nM
- Max Inhibition (%) (human CCR8 [4]): 100%
- EC50 (cynomolgus CCR8): 0.158 nM
- Max MFI (cynomolgus CCR8): 4.02e+06 MFI
- Max MFI (human CCR8 [5]): 253000 MFI

B4: Hu149-19 (antibody, human IgG1, V domains shown)
VH: EVQLVESGGGLVQPGGSLKLSCAASGFTFNTYAMNWVRQASGKGLEWVGRIRSKSNFYATAYAASVKGRFTISRDDSKNTAYLQMNSLKTEDTAVYYCTRGREYGSSYAMDYWGQGTLVTVSS
VL: DIVMTQSPLSLPVTPGEPASISCRSSKSLLHSNANTYLYWFLQKPGQSPQLLIYRMSNLASGVPDRFSGSGSGTDFTLKISRVEAEDVGVYYCMQHLKYPLTFGGGTKVELK
notes: human IgG1
- EC50 (human CCR8 [3]): 0.161 nM
- Max MFI (human CCR8 [3]): 666000 MFI
- IC50 (human CCR8 [4]): 0.168 nM
- Max Inhibition (%) (human CCR8 [4]): 100%
- EC50 (cynomolgus CCR8): 0.214 nM
- Max MFI (cynomolgus CCR8): 3.95e+06 MFI
- Max MFI (human CCR8 [5]): 187000 MFI

B5: Hu149-16 (antibody, human IgG1, V domains shown)
VH: EVQLVESGGGLVQPGGSLKLSCAASGFTFNTYAMNWVRQASGKGLEWVGRIRSKSNFYATAYAASVKGRFTISRDDSKNTAYLQMNSLKTEDTAVYYCTRGRDYGSSYAMDYWGQGTLVTVSS
VL: DIVMTQSPLSLPVTPGEPASISCRSSKSLLHSNANTYLYWFLQKPGQSPQLLIYRMSNLASGVPDRFSGSGSGTDFTLKISRVEAEDVGVYYCMQHLKYPLTFGGGTKVELK
notes: human IgG1
- EC50 (human CCR8 [3]): 0.0659 nM
- Max MFI (human CCR8 [3]): 672000 MFI
- IC50 (human CCR8 [4]): 0.114 nM
- Max Inhibition (%) (human CCR8 [4]): 101%
- EC50 (cynomolgus CCR8): 0.142 nM
- Max MFI (cynomolgus CCR8): 3.8e+06 MFI
- Max MFI (human CCR8 [5]): 228000 MFI

B6: Hu149-15 (antibody, human IgG1, V domains shown)
VH: EVQLVESGGGLVQPGGSLKLSCAASGFTFNTYAMNWVRQAPGKGLEWVGRIRSKSNFYATAYAASVKGRFTISRDDSKNTAYLQMNSLKTEDTAVYYCTRGRDYGSSYAMDYWGQGTLVTVSS
VL: DIVMTQSPLSLPVTPGEPASISCRSSKSLLHSNANTYLYWFLQKPGQSPQLLIYRMSNLASGVPDRFSGSGSGTDFTLKISRVEAEDVGVYYCMQHLEYPLTFGGGTKVELK
notes: human IgG1
- EC50 (human CCR8 [3]): 0.128 nM
- Max MFI (human CCR8 [3]): 627000 MFI
- IC50 (human CCR8 [4]): 0.104 nM
- Max Inhibition (%) (human CCR8 [4]): 99.3%
- EC50 (cynomolgus CCR8): 0.282 nM
- Max MFI (cynomolgus CCR8): 3.93e+06 MFI
- EC50 (human CCR8 [5]): 0.108 nM
- Max MFI (human CCR8 [5]): 21300 MFI

B7: Hu149-17 (antibody, human IgG1, V domains shown)
VH: EVQLVESGGGLVQPGGSLKLSCAASGFTFNTYAMNWVRQASGKGLEWVGRIRSKSNFYATAYAASVKGRFTISRDDSKNTAYLQMNSLKTEDTAVYYCTRGRDYGSSYAMDYWGQGTLVTVSS
VL: DIVMTQSPLSLPVTPGEPASISCRSSKSLLHSNANTYLYWFLQKPGQSPQLLIYRMSNLASGVPDRFSGSGSGTDFTLKISRVEAEDVGVYYCMQHLSYPLTFGGGTKVELK
notes: human IgG1
- EC50 (human CCR8 [3]): 0.0755 nM
- Max MFI (human CCR8 [3]): 645000 MFI
- IC50 (human CCR8 [4]): 0.0698 nM
- Max Inhibition (%) (human CCR8 [4]): 100%
- EC50 (cynomolgus CCR8): 0.123 nM
- Max MFI (cynomolgus CCR8): 4.11e+06 MFI
- Max MFI (human CCR8 [5]): 29600 MFI

B8: Hu149-14 (antibody, human IgG1, V domains shown)
VH: EVQLVESGGGLVQPGGSLKLSCAASGFTFNTYAMNWVRQASGKGLEWVGRIRSKSNFYATAYAASVKGRFTISRDDSKNTAYLQMNSLKTEDTAVYYCTRGREYGSAYAMDYWGQGTLVTVSS
VL: DIVMTQSPLSLPVTPGEPASISCRSSKSLLHSNANTYLYWFLQKPGQSPQLLIYRMSNLASGVPDRFSGSGSGTDFTLKISRVEAEDVGVYYCMQHLEYPLTFGGGTKVELK
notes: human IgG1
- EC50 (human CCR8 [3]): 0.0626 nM
- Max MFI (human CCR8 [3]): 663000 MFI
- IC50 (human CCR8 [4]): 0.0816 nM
- Max Inhibition (%) (human CCR8 [4]): 100%
- EC50 (cynomolgus CCR8): 0.157 nM
- Max MFI (cynomolgus CCR8): 4.42e+06 MFI
- EC50 (human CCR8 [5]): 0.184 nM
- Max MFI (human CCR8 [5]): 28600 MFI

B9: Hu149-21 (antibody, human IgG1, V domains shown)
VH: EVQLVESGGGLVQPGGSLKLSCAASGFTFNTYAMNWVRQASGKGLEWVGRIRSKSNFYATAYAASVKGRFTISRDDSKNTAYLQMNSLKTEDTAVYYCTRGREYGRSYAMDYWGQGTLVTVSS
VL: DIVMTQSPLSLPVTPGEPASISCRSSKSLLHSNANTYLYWFLQKPGQSPQLLIYRMSNLASGVPDRFSGSGSGTDFTLKISRVEAEDVGVYYCMQHLKYPLTFGGGTKVELK
notes: human IgG1
- EC50 (human CCR8 [3]): 0.642 nM
- Max MFI (human CCR8 [3]): 794000 MFI
- IC50 (human CCR8 [4]): 0.796 nM
- Max Inhibition (%) (human CCR8 [4]): 101%
- EC50 (cynomolgus CCR8): 0.946 nM
- Max MFI (cynomolgus CCR8): 4.15e+06 MFI
- Max MFI (human CCR8 [5]): 240000 MFI

B10: 262C2G7 (antibody, V domains shown)
VH: DVHLQESGPGLVKPSQSLSLTCSVTGYSITSGYYWNWIRQFPGNKLEWMGYISYDGSNNYNPSLKNRISITRDISKNQFFLKLNSVTTEDTATYYCARQIGLRRGAMDYWGQGTSVTVSS
VL: DIQMTQSSSYLSVSLGGRVTITCKASDHINNWLAWYQQKPGNAPRLLISGSTSLKAGVASRFSGSGSGKDYTLTITSLQTEDVATYYCQQYWGIPFTFGGGTKLEIK
notes: as for B1
- IC50 (human CCR8 [1]): 0.632 nM
- Max Inhibition (%) (human CCR8 [1]): 86.1%
- IC50 (human CCR8 [2]): 1.57 nM
- Max Inhibition (%) (human CCR8 [2]): 95.6%

B11: 273H2G6 (antibody, V domains shown)
VH: DVQLQESGPGLVKPSQSLSLTCSVTGYSITSGYYWNWIRQFPGNKLEWMGYISYDGSNNYNPSLKNRISITRDISKNQFFLKLNSVTTEDTATYYCARQVGLRRGAMDYWGQGTSVTVSS
VL: DIQMTQSSSYLSVSLGGRVTITCKASDHINNWLAWYQQKPGNAPRLLISGSTSLKAGVASRFSGSGSGKDYTLSITSLQTEDVATYYCQQYWSIPYTFGGGTKLEIK
notes: as for B1
- IC50 (human CCR8 [1]): 0.782 nM
- Max Inhibition (%) (human CCR8 [1]): 85.8%
- IC50 (human CCR8 [2]): 2.48 nM
- Max Inhibition (%) (human CCR8 [2]): 91.3%

B12: 191E12H8 (antibody, V domains shown)
VH: DVQLQESGPGLVKPSQSLSLTCSVTGYSITSGYYWNWIRQFPGNKLEWMGYISYDGSNNYNPSLKNRISITRDISKNQFFLKLNSVTTEDTATYYCARQIGLRRGAMDYWGQGTSVTVSS
VL: DIQMTQSSSYLSVSLGGRVTITCKASDHINTWLAWYQQKPGNAPRLLISGSTSLKAGVASRFSGSGSGKDYTLTITSLQTEDVATYYCQQYWGIPFTFGGGTKLEIK
notes: as for B1
- IC50 (human CCR8 [1]): 0.934 nM
- Max Inhibition (%) (human CCR8 [1]): 85.6%
- IC50 (human CCR8 [2]): 13.3 nM
- Max Inhibition (%) (human CCR8 [2]): 89.7%

B13: 234G9C12 (antibody, V domains shown)
VH: DVQLQESGPGLVKPSQSLSLTCSVTGYSITSGYYWNWIRQFPGNKLEWMGYTSYDGSNNYNPSFKNRISITRDISKNQFFLKLNSVTTEDTATYYCARQIGLRRGAMDHWGQGTSVTVSS
VL: DIQMTQSSSYLSVSLGGRVTITCKASDHINNWLAWYQQKPGNAPRLLISGSTSLRAGVASRFSGSGSGKDYTLTITSLQTEDVATYYCQQYWGIPFTFGGGTKLEIK
notes: as for B1
- IC50 (human CCR8 [1]): 0.812 nM
- Max Inhibition (%) (human CCR8 [1]): 94%
- IC50 (human CCR8 [2]): 1.34 nM
- Max Inhibition (%) (human CCR8 [2]): 96.8%
